Test results from US20260167721A1 (ABLEXIS, published 2026).
Where a chain is given by its changes, count along the chain named. Values belong to the binder of their own block, whether it stands above or below them.

What was measured:
[1] = molecular target: T1, recombinant human CD3 epsilon/delta heterodimer (human, UniProt P07766 23-126; P04234 22-105); assay: Octet BLI, mAb on FAB2G sensor, hCD3 E/D 200-50 nM; R^2 0.97
T1 construct: Recombinant protein in solution (200-50 nM) in the Octet assay; also called hCD3 E/D; human CD3E/D
T1 sequence (P07766 23-126, stated change not applied, chain 1 of 2): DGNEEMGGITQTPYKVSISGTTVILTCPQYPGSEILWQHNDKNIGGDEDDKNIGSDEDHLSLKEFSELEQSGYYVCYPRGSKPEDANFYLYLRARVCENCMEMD
T1 sequence (P04234 22-105, stated change not applied, chain 2 of 2): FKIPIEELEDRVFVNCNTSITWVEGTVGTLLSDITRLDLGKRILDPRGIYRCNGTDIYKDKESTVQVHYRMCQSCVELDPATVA
Procedure: (§1) Samples were evaluated by flow cytometry analysis against Jurkat and human Pan-T cells (FIG. 1B) as well as by Octet against recombinant human CD3 proteins to evaluate apparent affinities and binding off-rates (Table 6, infra).

[2] = molecular target: T2, recombinant human CD3 epsilon/gamma heterodimer (human, UniProt P07766 23-126; P09693 23-116); assay: Octet BLI, mAb on FAB2G sensor, hCD3 E/G 200-50 nM; R^2 0.91
T2 construct: Recombinant protein in solution (200-50 nM) in the Octet assay; also called hCD3 E/G
T2 sequence (P07766 23-126, chain 1 of 2): as the sequence (P07766 23-126, stated change not applied, chain 1 of 2) above
T2 sequence (P09693 23-116, chain 2 of 2): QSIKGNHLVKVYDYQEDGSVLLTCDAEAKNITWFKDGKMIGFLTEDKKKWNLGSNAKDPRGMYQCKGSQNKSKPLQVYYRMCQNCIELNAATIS
Procedure: as §1

[3] = molecular target: T1, recombinant human CD3 epsilon/delta …; assay: Octet BLI, mAb on FAB2G sensor, hCD3 E/D 200-50 nM; R^2 0.99
[4] = molecular target: T2, recombinant human CD3 epsilon/gamma …; assay: Octet BLI, mAb on FAB2G sensor, hCD3 E/G 200-50 nM; R^2 0.63
Procedure: as §1

[5] = molecular target: T3, human CD3 (TCR/CD3 complex) on the cell surface (human, UniProt P07766 23-207; P09693 23-182; P04234 22-171; P20963 22-164); assay: flow cytometry, Pan-T cells, 1 ug/mL
T3 construct: whole, on cells; also called CD3 on Pan-T cells; CD3 on Jurkat WT cells
T3 sequence (P07766 23-207, chain 1 of 4): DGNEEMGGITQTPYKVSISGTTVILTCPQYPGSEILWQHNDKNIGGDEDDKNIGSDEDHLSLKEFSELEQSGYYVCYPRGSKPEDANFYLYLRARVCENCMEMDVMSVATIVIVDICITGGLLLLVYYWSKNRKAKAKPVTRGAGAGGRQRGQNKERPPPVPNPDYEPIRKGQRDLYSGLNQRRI
T3 sequence (P09693 23-182, chain 2 of 4): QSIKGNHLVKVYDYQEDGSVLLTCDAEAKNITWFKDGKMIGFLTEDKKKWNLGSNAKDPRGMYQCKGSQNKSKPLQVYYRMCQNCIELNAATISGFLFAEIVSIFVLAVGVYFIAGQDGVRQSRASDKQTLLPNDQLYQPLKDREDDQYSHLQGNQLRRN
T3 sequence (P04234 22-171, chain 3 of 4): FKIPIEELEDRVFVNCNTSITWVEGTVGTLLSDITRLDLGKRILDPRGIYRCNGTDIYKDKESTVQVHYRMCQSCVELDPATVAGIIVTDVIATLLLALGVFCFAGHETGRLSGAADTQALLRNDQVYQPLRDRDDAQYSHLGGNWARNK
T3 sequence (P20963 22-164, chain 4 of 4): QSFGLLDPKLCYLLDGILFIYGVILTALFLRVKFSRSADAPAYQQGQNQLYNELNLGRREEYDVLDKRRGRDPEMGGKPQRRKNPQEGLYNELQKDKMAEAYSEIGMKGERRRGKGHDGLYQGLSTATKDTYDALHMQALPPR

[6] = molecular target: T3, human CD3 (TCR/CD3 complex) on the cell …; assay: flow cytometry, Pan-T cells, 10 ug/mL
[7] = molecular target: T3, human CD3 (TCR/CD3 complex) on the cell …; assay: flow cytometry, Jurkat WT cells, 1 ug/mL
[8] = molecular target: T3, human CD3 (TCR/CD3 complex) on the cell …; assay: flow cytometry, Jurkat WT cells, 10 ug/mL
[9] = molecular target: T4, recombinant CD3 proteins (UniProt P07766 23-126); assay: Octet BLI, recombinant CD3; Full R^2 0.995
T4 construct: elsewhere it uses human CD3 E/D and E/G heterodimers
T4 sequence (P07766 23-126): as the sequence (P07766 23-126, stated change not applied, chain 1 of 2) above

[10] = molecular target: T4, recombinant CD3 proteins; assay: Octet BLI, recombinant CD3; Full R^2 0.9943
[11] = molecular target: T3, human CD3 (TCR/CD3 complex) on the cell …; assay: flow cytometry, gMFI Jurkat WT over Jurkat TCRb KO, 1 ug/mL
[12] = molecular target: T3, human CD3 (TCR/CD3 complex) on the cell …; assay: flow cytometry, gMFI Jurkat WT over Jurkat TCRb KO, 10 ug/mL
[13] = molecular target: T4, recombinant CD3 proteins; assay: Octet BLI, recombinant CD3; Full R^2 0.557*
[14] = molecular target: T4, recombinant CD3 proteins; assay: Octet BLI, recombinant CD3; Full R^2 0.951
[15] = molecular target: T4, recombinant CD3 proteins; assay: Octet BLI, recombinant CD3; Full R^2 0.999
[16] = molecular target: T4, recombinant CD3 proteins; assay: Octet BLI, recombinant CD3; Full R^2 0*
[17] = molecular target: T4, recombinant CD3 proteins; assay: Octet BLI, recombinant CD3; Full R^2 0.000*
[18] = molecular target: T1, recombinant human CD3 epsilon/delta …; assay: Octet BLI, mAb on FAB2G sensor, hCD3 E/D 200-50 nM; R^2 0.60
Procedure: as §1

[19] = molecular target: T2, recombinant human CD3 epsilon/gamma …; assay: Octet BLI, mAb on FAB2G sensor, hCD3 E/G 200-50 nM; R^2 0.49
Procedure: as §1

Kd [1]: 103 nM
Response [1]: 0.22
koff [1]: 0.0318 s⁻¹
kon [1]: 309000 M⁻¹ s⁻¹
Kd [2]: 210 nM
koff [2]: 0.132 s⁻¹
kon [2]: 627000 M⁻¹ s⁻¹
B1: ABL-CD3-17 (antibody, V domains shown)
VH: EVQLVESGGGLVQPGGSLRLSCAASGFTFSRYSINWVRQAPGKGLEWVSYISSSSSTIYYADSVKGRFTISRDNAKNSLYLQMNSLRDEDTAVYYCARERWELLYFDYWGQGTLVTVSS
VL: NFMLTQPHSVSESPGKTVTISCTRSSGSIASKYVQWYQQRPGSSPTTVIYEDNQRPSGVPDRFSGSIDSSSNSASLTISGLKTEDEADYYCQSYDSNNRVFGGGTKLTVL
notes: Chimeric hybridoma mAb: human V, CH1, upper hinge; mouse middle hinge, CH2, CH3

Kd [3]: 29.5 nM
Response [3]: 0.19
koff [3]: 0.00153 s⁻¹
kon [3]: 51900 M⁻¹ s⁻¹
Kd [4]: < 0.001 nM
koff [4]: < 1e-07 s⁻¹
kon [4]: 36200 M⁻¹ s⁻¹
B2: ABL-CD3-16 (antibody, V domains shown)
VH: EVQLVESGGGLVQPGGSLRLSCAASGFTFSRYWMTWVRQAPGKGLEWVANIKEDGSEKYCVDSVKGRFTISRDNAKNSLYLQLNSLRAEDTAVYYCARERRTGYFDYWGQGTLVTVSS
VL: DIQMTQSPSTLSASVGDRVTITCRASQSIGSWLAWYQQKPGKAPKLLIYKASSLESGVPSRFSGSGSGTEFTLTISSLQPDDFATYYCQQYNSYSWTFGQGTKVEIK
notes: as for B1

% Positive [5]: 99.4%
gMFI [5]: 66400 gMFI
% Positive [6]: 99.4%
gMFI [6]: 178000 gMFI
gMFI [7]: 15500 gMFI
gMFI [8]: 21600 gMFI
Kd [9]: 44.9 nM
koff [9]: 0.0111 s⁻¹
kon [9]: 248000 M⁻¹ s⁻¹
Kd [10]: 39.5 nM
koff [10]: 0.0102 s⁻¹
kon [10]: 259000 M⁻¹ s⁻¹
Jurkat WT/KO (Fold) [11]: 4 fold
Jurkat WT/KO (Fold) [12]: 5.2 fold
B3: Control Humanized anti-CD3 (high affinity) scFv-Fc knob/TM (bispecific antibody)
scFv: EVQLVESGGGLVQPGGSLRLSCAASGFTFSTYAMNWVRQAPGKGLEWVGRIRSKYNNYATYYADSVKGRFTISRDDSKNTLYLQMNSLRAEDTAVYYCVRHGNFGDSYVSWFAYWGQGTLVTVSSGKPGSGKPGSGKPGSGKPGSQAVVTQEPSLTVSPGGTVTLTCGSSTGAVTTSNYANWVQQKPGKSPRGLIGGTNKRAPGVPARFSGSLLGGKAALTISGAQPEDEADYYCALWYSNHWVFGGGTKLTVLGGGGSDKTHTCPPCPAPEFEGGPSVFLFPPKPKDTLMISRTPEVTCVVVDVSHEDPEVKFNWYVDGVEVHNAKTKPREEQYNSTYRVVSVLTVLHQDWLNGKEYKCKVSNKALPASIEKTISKAKGQPREPQVYTLPPCREEMTKNQVSLWCLVKGFYPSDIAVEWESNGQPENNYKTTPPVLDSDGSFFLYSKLTVDKSRWQQGNVFSCSVMHEALHNHYTQKSLSLSPGK
heavy: EVQLVQSGAEVKKPGSSVKVSCKASGYTITDSNIHWVRQAPGQSLEWIGYIYPYNGGTDYNQKFKNRATLTVDNPTNTAYMELSSLRSEDTAFYYCVNGNPWLAYWGQGTLVTVSSASTKGPSVFPLAPSSKSTSGGTAALGCLVKDYFPEPVTVSWNSGALTSGVHTFPAVLQSSGLYSLSSVVTVPSSSLGTQTYICNVNHKPSNTKVDKRVEPKSCDKTHTCPPCPAPEFEGGPSVFLFPPKPKDTLMISRTPEVTCVVVDVSHEDPEVKFNWYVDGVEVHNAKTKPREEQYNSTYRVVSVLTVLHQDWLNGKEYKCKVSNKALPASIEKTISKAKGQPREPQVCTLPPSREEMTKNQVSLSCAVKGFYPSDIAVEWESNGQPENNYKTTPPVLDSDGSFFLVSKLTVDKSRWQQGNVFSCSVMHEALHNRFTQKSLSLSPGK
light: DIQLTQSPSTLSASVGDRVTITCRASESLDNYGIRFLTWFQQKPGKAPKLLMYAASNQGSGVPSRFSGSGSGTEFTLTISSLQPDDFATYYCQQTKEVPWSFGQGTKVEVKRTVAAPSVFIFPPSDEQLKSGTASVVCLLNNFYPREAKVQWKVDNALQSGNSQESVTEQDSKDSTYSLSSTLTLSKADYEKHKVYACEVTHQGLSSPVTKSFNRGEC

Kd [13]: < 0.001 nM
koff [13]: < 1e-07 s⁻¹
kon [13]: 15400 M⁻¹ s⁻¹
B4: CD3 × CD33-BspAb122 (bispecific antibody)
chain 1: QTVVTQEPSFSVSPGGTVTLTCGLSSGSVSTSYYPSWYQQTPGQAPRTLIYSTNTRSSGVPDRFSGSILGNKAALTITGAQADDESDYYCVLYMGSGIWVFGCGTKLTVLGGGGSGGGGSGGGGSGGGGSEVQLVESGGGLVKPGGSLRLSCAASGFTVSNYSMNWVRQAPGKCLEWVSSISRSSSYIYYADSVKGRFTISRDNAKNSLFLQMNSLRAEDTAVYYCARERWELLYFDYWGQGTLVTVSSDKTHTCPPCPAPEFEGGPSVFLFPPKPKDTLMISRTPEVTCVVVDVSHEDPEVKFNWYVDGVEVHNAKTKPREEQYNSTYRVVSVLTVLHQDWLNGKEYKCKVSNKALPASIEKTISKAKGQPREPQVYTLPPCREEMTKNQVSLWCLVKGFYPSDIAVEWESNGQPENNYKTTPPVLDSDGSFFLYSKLTVDKSRWQQGNVFSCSVMHEALHNHYTQKSLSLSPGK
chain 2: B3 heavy
chain 3: B3 light

Kd [14]: 12 nM
koff [14]: 0.00103 s⁻¹
kon [14]: 85500 M⁻¹ s⁻¹
B5: CD3 × CD33-BspAb123 (bispecific antibody)
chain 1: QTVVTQEPSFSVSPGGTVTLTCGLNSGSVSTSYYPSWYQQTPGQTPRTLIYSTNTRSSGVPDRFSGSILGNKAALTITGAQADDESDYYCVLYMGSGIWVFGCGTKLTVLGGGGSGGGGSGGGGSGGGGSQVQLVQSGAEVKKPGASLKVSCKASGYTFTSYYMHWVRQAPGQCLEWMGIINPSNGNTISAQKFQGRVTMTRDTSTSTVYMEMSSLRSEDTAVYYCVRSWGYYVMDVWGQGTTVTVSSDKTHTCPPCPAPEFEGGPSVFLFPPKPKDTLMISRTPEVTCVVVDVSHEDPEVKFNWYVDGVEVHNAKTKPREEQYNSTYRVVSVLTVLHQDWLNGKEYKCKVSNKALPASIEKTISKAKGQPREPQVYTLPPCREEMTKNQVSLWCLVKGFYPSDIAVEWESNGQPENNYKTTPPVLDSDGSFFLYSKLTVDKSRWQQGNVFSCSVMHEALHNHYTQKSLSLSPGK
chain 2: B3 heavy
chain 3: B3 light

Kd [15]: 319 nM
koff [15]: 0.00375 s⁻¹
kon [15]: 11800 M⁻¹ s⁻¹
B6: CD3 × CD33-BspAb125 (bispecific antibody)
chain 1: not shown
chain 2: B3 heavy
chain 3: B3 light

% Positive [5]: 1.5%
gMFI [5]: 2070 gMFI
% Positive [6]: 7.9%
gMFI [6]: 3410 gMFI
Kd [16]: 4.27 nM
koff [16]: 5.33e-05 s⁻¹
kon [16]: 12500 M⁻¹ s⁻¹
gMFI [7]: 1920 gMFI
gMFI [8]: 2090 gMFI
Kd [17]: 4.38 nM
koff [17]: 5.48e-05 s⁻¹
kon [17]: 12500 M⁻¹ s⁻¹
Jurkat WT/KO (Fold) [11]: 0.9 fold
Jurkat WT/KO (Fold) [12]: 1 fold
B7: Control Humanized anti-CD3 (low affinity) scFv-Fc knob/TM (bispecific antibody)
scFv: B3 scFv with A113D
heavy: B3 heavy
light: B3 light

Kd [18]: < 0.001 nM
koff [18]: < 1e-07 s⁻¹
kon [18]: 29100 M⁻¹ s⁻¹
Kd [19]: < 0.001 nM
koff [19]: < 1e-07 s⁻¹
kon [19]: 27000 M⁻¹ s⁻¹
B8: ABL-CD3-18 (antibody, V domains shown)
VH: EVQLVESGEGLVQPGGSLRLSCAASGFTFSSYAMHWVRQAPGKGLEYVSAISSNGGRTYYADSVKGRFTISRDNSKNTLYLQMGSLRAEDMAVYYCARGGSLDYWGQGTLVTVSS
VL: DIVMTQTPLSSPVTPGQPASISCRSSQSLVHSDGNTYLNWLQQRPGQPPRLLIYKISDRFSGVPDRFSGSGAGTDFTLKIGRVEAEDVGVYYCMQSTQFPITFGQGTRLEIK
notes: as for B1
